Experimental findings from article PMC6224377 (Frontiers in Immunology, 2018) are described below.

Sequences and labels used below:
B1: MK-24C10 (antibody, V domains shown)
VH: QVQLVESGGGVVQPGRSLRLSCAASGFTFSSYGMHWVRQAPGKGLEWVAVIWFDGTNKHYADSVKGRFTISRDNSKNTLYLQMNSLRAEDTAVYYCARDKGEWFGELRYYYYGMDVWGQGTTVTVSS
VL: not shown
B2: GK-22G12 (antibody, V domains shown)
VH: EVQLVESGGGLVQSGGSLRLSCAASGFTFSSQRLSWVRQAPGKGLEWVANIKQDGSEKNYVDSVRGRFTISRDIAKNSLYLQMNSLRAEDTAVYYCARDGYRNGWHIPEDYWGQGTLVTVSS
VL: DIVMTQSPSSLSASVGDRVTITCRASQGISNYLAWYQQKPGKVPKLLIYAASTLQSGVPSRFSGSGSGTDFTLTISSLQPEDVSTYYCQKHNRAPWTFGQGTKLEIK
B3: MK-7C3 (antibody, V domains shown)
VH: EVQLLETGGGVVQPGRSLRLSCVASGFTFRSHGMHWVRQAPGKGLEWVALIWYDGSKKYYADSVKGRFTISRDNSKNTLYLQMNSLRAEDTAVYYCARVGAGLYLDYWGQGTLVTVSS
VL: AIRMTQSPSTLSASVGDRVTITCRASQTISNWLAWFQQKPGKAPKVLIYKASSLESGVPSRFSGSGSGTEFTLTISSLQPDDFASYYCQQYNSYSYTFGQGTRLEIK
B4: GK-5E1 (antibody, V domains shown)
VH: QVTLKESGGDVVQPGRSLRLSCAASGFTFRTYGMHWVRQAPGKGPEWVALIWYDGSKKYYADSVKGRFTISRDNSKNTLYLQMNSLRAEDTAVYYCVRVRFGELYFQHWGQGTLVTVSS
VL: not shown
B5: GK-5G12 (antibody, V domains shown)
VH: QITLKESGGGVVQPGRSLRLSCAASGFTFRTYGMHWVRQAPGKGLEWVALIWYDGSNKYYADSVKGRFTISRDNSKNTLYLQMNSLRAEDTAVYYCIRVKFGDLYFQHWGQGTLVTVSS
VL: EIVLTQSPSSLSASVGDRVTITCRASQGISNYLAWYQQKPGKVPKLLIYAASTLQSGVPSRFSGSGSGTDFTLTISSLQPEDVATYYCQKYNSAPYTFGQGTKLEIK
B6: GK-1E5 (antibody, V domains shown)
VH: EVQLVESGGGVVQPGRSLRLSCAASGFTFRSYGMHWVRQAPGKGLEWVAIIWYDGSKKYYTDSVQGRFTISRDNSKNTLYLQMNSLRAEDTAVYYCARPGIAMTGLDYWGQGTLVTVSS
VL: DIQLTQSPSTLSASVGDRVTITCRASQSISSWLAWYQQKPGKAPKLLIYKASSLESGVPSRFSGSGSGTEFTLTISSLQPDDFATYYCQQYNNYWTFGQGTKVEIK
B7: GK-2G8 (antibody, V domains shown)
VH: QVQLQESGGGVVQPGRSLRLSCAASGFTFRSYGMHWVRQAPGKGLEWVAIIWYDGSKKYYTDSVKGRFTISRDNSKNTLYLQMNSLRAEDTAVYYCARPGVAMTGLDLWGQGTLVTVSS
VL: EIVMTQSPSTLSASVGDRVTITCRASQSISSWLAWYQQKPGKAPKLLIYKASSLESGVPSRFSGSGSGTEFTLTISSLQPDDFATYYCQQYNNYWTFGQGTKVDIK
B8: GK-5A1 (antibody, V domains shown)
VH: QVQLVESGGGVVQPGRSLRLSCAASGFTFSSYGMYWVRQAPGKGLEWVAVIWNDGSNKYYADSVKGRFTISRDNSKNTLYLQMNSLRAEDTAVYYCAREGSGWYDYYYGMDVWGQGTTVTVSS
VL: EIVLTQSPSTLSASVGDRVTITCRASQSISSWLAWYQQKPGKAPKLLIYKASSLESGVPSRFSGSGSGTEFTLTISSLQPDDFATYYCQQYNSYWTFGQGTKVDIK
B9: MK-3B12 (antibody, V domains shown)
VH: EVQLVESGPGLLKPSETLSLTCAVSGYSISSGYYWGWIRQPPGKGLEWIGSIYQSGSTHYNPSLKSRVTISVDTSKNQFSLKLTSVTAADTAVYYCAREDRAGWYPFDCWGQGTLVTVSS
VL: DIVMTQSPSTLSASVGDRVTITCRASQSISSWLAWYQQKPGKAPKLLIYKASSLESGVPSRFSGSGSGTEFTLTISSLQPDDFATYYCQQYNNYWTFGQGTKVEIK

In one experiment the target is T1, hROR2-ECD-Twin-Strep (soluble human ROR2 extracellular domain fused to a Twin-Strep-tag) (Homo sapiens (Human)., UniProt Q01974).
T1 construct: signal peptide in the construct; extracellular domain of human receptor tyrosine kinase-like orphan receptor 2 (ROR2), NP_004551.2, amino acids 1-403; Gene synthesis (GenScript), vector pCB14b; also called hROR2-Twin-Strep; human ROR2-ECD-Twin-Strep; not shown: Twin-Strep-tag, C-terminal, kept
T1 sequence (Q01974 34-403): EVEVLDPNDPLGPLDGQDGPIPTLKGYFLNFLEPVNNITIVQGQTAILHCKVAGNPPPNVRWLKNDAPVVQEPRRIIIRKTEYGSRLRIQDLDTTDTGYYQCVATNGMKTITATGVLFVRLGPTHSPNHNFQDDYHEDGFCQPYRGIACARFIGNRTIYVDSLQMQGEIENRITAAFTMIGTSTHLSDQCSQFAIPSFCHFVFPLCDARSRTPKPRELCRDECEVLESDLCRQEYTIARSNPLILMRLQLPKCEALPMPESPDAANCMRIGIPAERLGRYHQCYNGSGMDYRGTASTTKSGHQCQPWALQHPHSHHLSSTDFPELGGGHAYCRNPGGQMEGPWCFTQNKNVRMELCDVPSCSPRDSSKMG
The experiment can be described thus: SPR; multi-cycle SPR, Biacore T200; antibodies captured on a CM5 Protein A chip or by Protein G immobilized on a CM5 chip (capture levels 148 to 845 RU); hROR2-ECD-Twin-Strep as analyte, 2-fold serial dilutions 40 nM to 2.5 nM in running buffer. The settings on record: both partners purified. In general terms: In SPR one partner is held on a chip, and binding of the other changes the refractive index at the surface.
Turning to B1, the binding result is “binds”.

Take B2: the binding result is reported as “binds”. In the case of B3, the binding result was “binds”.

Another experiment addresses T1, hROR2-ECD-Twin-Strep (soluble human …). As to the kind of experiment: ELISA; MaxiSorp plates coated with 2 μg/ml antigen in 100 mM bicarbonate/carbonate buffer; purified monoclonal antibodies from 0.5-2 μg/ml in serial dilutions in PBS-T/1% BSA, 1 h at 37°C; detected with HRP-conjugated F(ab')2 anti-human Fcγ. The note with it: both partners purified.
B4: the binding result was “binds”.

Take B5: the binding result is reported as “binds”. As for B6, the binding result was “binds”. Regarding B7, the binding result is “binds”. As for B8, the binding result is on record as “binds”.

In the case of B9, the binding result is reported as “binds”.
